In the RNAGym collection of RNA variant scans (doi:10.1021/acssynbio.7b00057):

B1: Pistol ribozyme (parent)
chain: GGGUCGUUGUUCCAUAAUCGCGUGGAUAUGGCACGCAAGUUUCUACCGGGCACCGUAAAUGUCCGACUGGAGCCGUUCGGGCGGCUAUAAACAGACCUCAGGCCCGAAGCGUGGCGGCACCUGCCGCCGGUGGUAAAAAAGAUCGGAAGAGCACACGUCU

Variants of: B1
Test: aptazyme ON/OFF ratio, guanine; higher = stronger switching; co-transcriptional cleavage with and without guanine

Question: Which “aptazyme ON/OFF ratio” value does the source give for U7G U8G G9U U10A U11C C12U C13A here?
Answer: Its value is 1.16.

Question: Which “aptazyme ON/OFF ratio” value does the source give for U7G U8G G9U U10G U11C C13U here?
Answer: Its value is 1.11.

Question: For U7G U8G G9U U10G U11C C13A, which “aptazyme ON/OFF ratio” value is on record?
Answer: The value was 1.18.

Question: With U7G U8G G9U U10G U11C C13G as the variant, how does the “aptazyme ON/OFF ratio” value read?
Answer: The value was 1.17.

Question: With U7G U8G G9U U10C C12U C13A as the variant, how does the “aptazyme ON/OFF ratio” value read?
Answer: Its value is 1.22.

Question: For U7G U8G G9U U10C C12U C13U, which “aptazyme ON/OFF ratio” value is on record?
Answer: The value was 1.35.

Question: For U7G U8G G9U U10C C12U C13G, which “aptazyme ON/OFF ratio” value is on record?
Answer: Its value is 1.36.

Question: For U7G U8G G9U U11C C13G, which “aptazyme ON/OFF ratio” value is on record?
Answer: Its value is 1.1.

Question: Which “aptazyme ON/OFF ratio” value does the source give for U7G U8G G9U U11C C13U here?
Answer: Its value is 1.41.

Question: Which “aptazyme ON/OFF ratio” value does the source give for U7G U8G G9U U11C C13A here?
Answer: Its value is 1.4.

Question: For U7G U8G G9U U10G U11C C12G, which “aptazyme ON/OFF ratio” value is on record?
Answer: The value was 1.11.

Question: Which “aptazyme ON/OFF ratio” value does the source give for U7G U8G G9U U10G U11C C12A here?
Answer: The value was 1.13.

Question: For U7G U8G G9U U10G U11C C12U, which “aptazyme ON/OFF ratio” value is on record?
Answer: The value was 1.04.

Question: For U7G U8G G9U U10G U11C C12U C13A, which “aptazyme ON/OFF ratio” value is on record?
Answer: Its value is 1.06.

Question: With U7G U8G G9U U10G U11C C12U C13U as the variant, how does the “aptazyme ON/OFF ratio” value read?
Answer: Its value is 1.03.

Question: Which “aptazyme ON/OFF ratio” value does the source give for U7G U8G G9U U10G U11C C12U C13G here?
Answer: The value was 1.19.

Question: With U7G U8G G9U C12A C13U as the variant, how does the “aptazyme ON/OFF ratio” value read?
Answer: Its value is 1.06.

Question: Which “aptazyme ON/OFF ratio” value does the source give for U7G U8G G9U C12A C13G here?
Answer: Its value is 1.1.

Question: For U7G U8G G9U C12A C13A, which “aptazyme ON/OFF ratio” value is on record?
Answer: The value was 1.17.

Question: Which “aptazyme ON/OFF ratio” value does the source give for U7G U8G U10A U11C C12G C13A here?
Answer: Its value is 1.16.

Question: Which “aptazyme ON/OFF ratio” value does the source give for U7G U8G U10A U11C C12G C13G here?
Answer: Its value is 1.11.

Question: For U7G U8G G9U U11C C12U C13G, which “aptazyme ON/OFF ratio” value is on record?
Answer: Its value is 1.38.

Question: With U7G U8G G9U U11C C12U C13A as the variant, how does the “aptazyme ON/OFF ratio” value read?
Answer: Its value is 1.35.

Question: For U7G U8G G9U U11C C12U C13U, which “aptazyme ON/OFF ratio” value is on record?
Answer: The value was 1.33.

Question: For U7G U8G G9U U10A U11G C12U, which “aptazyme ON/OFF ratio” value is on record?
Answer: Its value is 1.07.

Question: Which “aptazyme ON/OFF ratio” value does the source give for U7G U8G G9U U10A U11G C12A here?
Answer: Its value is 1.03.

Question: For U7G U8G G9U U10A U11G C12G, which “aptazyme ON/OFF ratio” value is on record?
Answer: Its value is 1.08.

Question: With U7G U8G G9U U10G C13A as the variant, how does the “aptazyme ON/OFF ratio” value read?
Answer: The value was 1.27.

Question: For U7G U8G G9U U10G C13U, which “aptazyme ON/OFF ratio” value is on record?
Answer: Its value is 1.36.

Question: For U7G U8G G9U U10G C13G, which “aptazyme ON/OFF ratio” value is on record?
Answer: The value was 1.21.

Question: With U7G U8G G9U U10C C12G as the variant, how does the “aptazyme ON/OFF ratio” value read?
Answer: Its value is 1.22.

Question: With U7G U8G G9U U10C C12A as the variant, how does the “aptazyme ON/OFF ratio” value read?
Answer: Its value is 1.38.

Question: Which “aptazyme ON/OFF ratio” value does the source give for U7G U8G G9U U10C C12U here?
Answer: Its value is 1.28.

Question: Which “aptazyme ON/OFF ratio” value does the source give for U7G U8G G9U U10A U11G C12U C13A here?
Answer: The value was 1.1.

Question: Which “aptazyme ON/OFF ratio” value does the source give for U7G U8G G9U U10A U11G C12U C13G here?
Answer: The value was 1.11.

Question: For U7G U8G G9U U10A U11G C12U C13U, which “aptazyme ON/OFF ratio” value is on record?
Answer: Its value is 1.08.

Question: With U7G U8G G9U U10A C13A as the variant, how does the “aptazyme ON/OFF ratio” value read?
Answer: The value was 1.13.

Question: With U7G U8G G9U U10A C13U as the variant, how does the “aptazyme ON/OFF ratio” value read?
Answer: The value was 1.31.

Question: Which “aptazyme ON/OFF ratio” value does the source give for U7G U8G G9U U10A C13G here?
Answer: The value was 1.1.

Question: For U7G U8G G9C U11G C12G C13G, which “aptazyme ON/OFF ratio” value is on record?
Answer: Its value is 1.24.

Question: With U7G U8G G9C U11G C12G C13A as the variant, how does the “aptazyme ON/OFF ratio” value read?
Answer: Its value is 1.17.

Question: For U7G U8G G9C U11G C12G C13U, which “aptazyme ON/OFF ratio” value is on record?
Answer: Its value is 1.18.

Question: Which “aptazyme ON/OFF ratio” value does the source give for U7G U8G G9U U10G U11G C12G here?
Answer: Its value is 1.16.

Question: Which “aptazyme ON/OFF ratio” value does the source give for U7G U8G G9U U10G U11G C12A here?
Answer: Its value is 1.13.

Question: For U7G U8G G9U U10G U11G C12U, which “aptazyme ON/OFF ratio” value is on record?
Answer: Its value is 1.18.

Question: With U7G U8G U10A U11C as the variant, how does the “aptazyme ON/OFF ratio” value read?
Answer: Its value is 1.09.

Question: Which “aptazyme ON/OFF ratio” value does the source give for U7G U8G U10A U11A here?
Answer: Its value is 2.25.

Question: Which “aptazyme ON/OFF ratio” value does the source give for U7G U8G G9C U11C C12G here?
Answer: The value was 3.

Question: For U7G U8G G9C U11C C12A, which “aptazyme ON/OFF ratio” value is on record?
Answer: Its value is 5.2.

Question: With U7G U8G G9C U11C C12U as the variant, how does the “aptazyme ON/OFF ratio” value read?
Answer: Its value is 2.49.

Question: For U7G U8G G9U U10A U11C C12A, which “aptazyme ON/OFF ratio” value is on record?
Answer: Its value is 1.32.

Question: For U7G U8G G9U U10A U11C C12G, which “aptazyme ON/OFF ratio” value is on record?
Answer: The value was 1.19.

Question: Which “aptazyme ON/OFF ratio” value does the source give for U7G U8G G9U U10A U11C C12U here?
Answer: The value was 1.22.

Question: For U7G U8G G9U U10C U11C C12G C13A, which “aptazyme ON/OFF ratio” value is on record?
Answer: Its value is 1.19.

Question: For U7G U8G G9U U10C U11C C12G C13G, which “aptazyme ON/OFF ratio” value is on record?
Answer: Its value is 1.12.

Question: Which “aptazyme ON/OFF ratio” value does the source give for U7G U8G G9U U10C U11C C12G C13U here?
Answer: The value was 1.33.

Question: For U7G U8G G9C U11A C12U C13A, which “aptazyme ON/OFF ratio” value is on record?
Answer: Its value is 1.13.

Question: With U7G U8G G9C U11A C12U C13G as the variant, how does the “aptazyme ON/OFF ratio” value read?
Answer: Its value is 1.15.

Question: Which “aptazyme ON/OFF ratio” value does the source give for U7G U8G G9C U11A C12U C13U here?
Answer: The value was 1.26.

Question: Which “aptazyme ON/OFF ratio” value does the source give for U7G U8G G9U U10G U11A C13A here?
Answer: The value was 1.13.

Question: Which “aptazyme ON/OFF ratio” value does the source give for U7G U8G G9U U10G U11A C13U here?
Answer: Its value is 1.19.

Question: For U7G U8G G9U U10G U11A C13G, which “aptazyme ON/OFF ratio” value is on record?
Answer: Its value is 1.16.

Question: With U7G U8G G9U U11A C12G C13A as the variant, how does the “aptazyme ON/OFF ratio” value read?
Answer: The value was 1.15.

Question: With U7G U8G G9U U11A C12G C13U as the variant, how does the “aptazyme ON/OFF ratio” value read?
Answer: Its value is 1.16.

Question: With U7G U8G G9U U11A C12G C13G as the variant, how does the “aptazyme ON/OFF ratio” value read?
Answer: The value was 1.06.

Question: Which “aptazyme ON/OFF ratio” value does the source give for U7G U8G U10A U11C C12A here?
Answer: Its value is 1.4.

Question: For U7G U8G U10A U11C C12G, which “aptazyme ON/OFF ratio” value is on record?
Answer: Its value is 1.25.

Question: With U7G U8G G9C U11C C12G C13A as the variant, how does the “aptazyme ON/OFF ratio” value read?
Answer: The value was 1.16.

Question: Which “aptazyme ON/OFF ratio” value does the source give for U7G U8G G9C U11C C12G C13G here?
Answer: Its value is 1.06.

Question: For U7G U8G G9C U11C C12G C13U, which “aptazyme ON/OFF ratio” value is on record?
Answer: Its value is 1.39.

Question: For U7G U8G G9U U10C U11C C12U, which “aptazyme ON/OFF ratio” value is on record?
Answer: The value was 1.53.

Question: Which “aptazyme ON/OFF ratio” value does the source give for U7G U8G G9U U10C U11C C12A here?
Answer: The value was 1.46.

Question: Which “aptazyme ON/OFF ratio” value does the source give for U7G U8G G9U U10C U11C C12G here?
Answer: Its value is 1.46.

Question: Which “aptazyme ON/OFF ratio” value does the source give for U7G U8G G9U U10C U11G C12G here?
Answer: Its value is 1.39.

Question: Which “aptazyme ON/OFF ratio” value does the source give for U7G U8G G9U U10C U11G C12U here?
Answer: The value was 1.22.

Question: For U7G U8G G9U U10C U11G C12A, which “aptazyme ON/OFF ratio” value is on record?
Answer: Its value is 1.32.

Question: Which “aptazyme ON/OFF ratio” value does the source give for U7G U8G G9U U11C C12G C13G here?
Answer: Its value is 1.17.

Question: Which “aptazyme ON/OFF ratio” value does the source give for U7G U8G G9U U11C C12G C13U here?
Answer: Its value is 1.43.

Question: Which “aptazyme ON/OFF ratio” value does the source give for U7G U8G G9U U11C C12G C13A here?
Answer: The value was 1.14.

Question: With U7G U8G G9U U10A C12A as the variant, how does the “aptazyme ON/OFF ratio” value read?
Answer: The value was 1.28.

Question: Which “aptazyme ON/OFF ratio” value does the source give for U7G U8G G9U U10A C12G here?
Answer: Its value is 1.21.

Question: For U7G U8G G9U U10A C12U, which “aptazyme ON/OFF ratio” value is on record?
Answer: Its value is 1.29.

Question: With U7G U8G G9U U10G U11G as the variant, how does the “aptazyme ON/OFF ratio” value read?
Answer: Its value is 1.81.

Question: With U7G U8G G9U U10G U11C as the variant, how does the “aptazyme ON/OFF ratio” value read?
Answer: The value was 1.1.
